Changes are numbered by the printed parent chain.
B1: M0043-F01: Fab that binds human MMP-14; DNA LV SEQ ID NO: 130, HV SEQ ID NO: 131 (antibody, V domains shown)
VL: QSALTQPASVSGSPGQSITISCTGTSSDIGAYRYVSWYQQRPGKAPKLMIFDVTKRPSGVSNRFSGFKSGNTASLTISGLQAEDEADYYCSSFTSGSTFVFGTGTKVTVL
VH: EVQLLESGGGLVQPGGSLRLSCAASGFTFSKYSMYWVRQAPGKGLEWVSSISSSGGYTAYADSVKGRFTISRDNSKNTLYLQMNSLRAEDTAVYYCAIPWGSGSSWGQGTLVTVSS
modifications: Synthetically generated oligonucleotide
B2: M0043-C03: Fab that binds human MMP-14; DNA LV SEQ ID NO: 128, HV SEQ ID NO: 129 (antibody, V domains shown)
VL: QDIQMTQSPASLYLSPGERATLSCRASQSVSSNLAWYQQKPGQAPRLLIYGASTRATGIPARFSGSGSGTEFTLTISSLQSADFAVYYCQQYDNWPPLTFGGGTKVEIK
VH: EVQLLESGGGLVQPGGSLRLSCAASGFTFSYYAMDWVRQAPGKGLEWVSSIGSSGGDTVYADSVKGRFTISRDNSKNTLYLQMNSLRAEDTATYYCARDPRQPGVFDYWGQGTLVTVSS
modifications: Synthetically generated oligonucleotide
B3: M0042-B07: Fab that binds human MMP-14; DNA LV SEQ ID NO: 122, HV SEQ ID NO: 123 (antibody, V domains shown)
VL: QDIQMTQSPLSLPVTPGEPASISCRSSQSLLHSNGYNYLDWYVQKPGQSPQLLIYLGSGRASGVPDRFSGSGSGTDFTLKINRVEAEDVGVYYCMQALQTPWTFGQGTKVEIK
VH: EVQLLESGGGLVQPGGSLRLSCAASGFTFSPYSMFWVRQAPGKGLEWVSVIYPSGGGTIYADSVKGRFTISRDNSKNTLYLQMNSLRAEDTAVYYCARSRESCDADTCYQYFQEWGQGTLVTVSS
modifications: Synthetically generated oligonucleotide
B4: M0043-G01: Fab that binds human MMP-14; DNA LV SEQ ID NO: 132, HV SEQ ID NO: 133 (antibody, V domains shown)
VL: QDIQMTQSPSAMSASVGDRVTITCRASQGISSWLAWYQQKPGKAPKLLIYAASSLQSGVPSRFSGSGSGTDFTLTISSLQPEDFATYYCQQANSFPLTFGGGTKVEIK
VH: EVQLLESGGGLVQPGGSLRLSCAASGFTFSFYSMHWVRQAPGKGLEWVSGISSSGGVTKYADSVKGRFTISRDNSKNTLYLQMNSLRAEDTAVYYCARARSTRGFDYWGQGTLVTVSS
modifications: Synthetically generated oligonucleotide
B5: M0044-B03: Fab that binds human MMP-14; DNA LV SEQ ID NO: 136, HV SEQ ID NO: 137 (antibody, V domains shown)
VL: B4 VL with A11S, M12V, G29N, S31Y, K40R, Q56H, N93K, L97V
VH: EVQLLESGGGLVQPGGSLRLSCAASGFTFSQYHMMWVRQAPGKGLEWVSSIGSSGYTKYADSVKGRFTISRDNSKNTLYLQMNSLRAEDTAVYYCAGAVAGTGAFDYWGQGTLVTVSS
modifications: Synthetically generated oligonucleotide
B6: M0041-H11: Fab that binds human MMP-14; DNA LV SEQ ID NO: 120, HV SEQ ID NO: 121 (antibody, V domains shown)
VL: QSELTQDPAVSVALGQTVRITCQGDSLRSYYASWYQQKPGQAPVLVIYGKNNRPSGIPDRFSGSSSGNTASLTITGAQAEDEADYYCNSRDSSGNHVVFGGGTKLTVL
VH: EVQLLESGGGLVQPGGSLRLSCAASGFTFSMYPMNWVRQAPGKGLEWVSSISSSGGWTKYADSVKGRFTISRDNSKNTLYLQMNSLRAEDTAVYYCARVFFGYDSSGYPYYYYGMDVWGQGTTVTVSS
modifications: Synthetically generated oligonucleotide
B7: M0043-A09: Fab that binds human MMP-14; DNA LV SEQ ID NO: 126, HV SEQ ID NO: 127 (antibody, V domains shown)
VL: QSVLTQPPSVSKDLRQTATLTCTGNSNNVGYQGAAWLQQHQGHPPKVLSYRNNNRPSGISERFSASRSGNTASLTITGLQPEDEADYYCSAWDSSLTAWVFGGGTKLTVL
VH: EVQLLESGGGLVQPGGSLRLSCAASGFTFSFYDMTWVRQAPGKGLEWVSSIWSSGGVTDYADSVKGRFTISRDNSKNTLYLQMNSLRAEDTAVYYCTRASSGYYDAFDIWGQGTMVTVSS
modifications: Synthetically generated oligonucleotide
B8: M0032-B07: Fab that binds human MMP-14; DNA LV SEQ ID NO: 20, HV SEQ ID NO: 21 (antibody, V domains shown)
VH: EVQLLESGGGLVQPGGSLRLSCAASGFTFSPYLMHWVRQAPGKGLEWVSSIYPSGGITQYADSVKGRFTISRDNSKNTLYLQMNSLRAEDTAVYYCARFFPSHRDYTAFDTWGRGTLVTVSS
VL: QSVLTQEPSLTVSPGGTVTLTCASNTGAVTSGSYANWFQQKPGLTPRALIYSGTNKYSWTPARFSGSLFGGKAALTLSGVLPEDEAEYYCLVYYGGVWVFGGGTKLTVL
modifications: Synthetically generated oligonucleotide
B9: M0044-D08: Fab that binds human MMP-14; DNA LV SEQ ID NO: 138, HV SEQ ID NO: 139 (antibody, V domains shown)
VL: QYELTQPLSVSVALGQTASISCWGHNIRIKNVHWYQQKPGQAPVVVMYIPERFSGSTSGNTATLTISGAQAGDEADYYCQVWDSSTVVFGGGTKLTVL
VH: EVQLLESGGGLVQPGGSLRLSCAASGFTFSKYPMSWVRQAPGKGLEWVSSIWPSGGHTFYADSVKGRFTISRDNSKNTLYLQMNSLRAEDTAVYYCAKNPGLRYAFDNWGRGTMVTVSS
modifications: Synthetically generated oligonucleotide
B10: M0041-H09: Fab that binds human MMP-14; DNA LV SEQ ID NO: 118, HV SEQ ID NO: 119 (antibody, V domains shown)
VL: QDIQMTQSPGTLSLSPGERATLSCRASQSLSGDYLAWYQQKIGQAPRLLIFGASRRPTGIPDRFSGSGSGTDFALTISRLEPEDFAVYYCQQYGSLITFGQGTRLEIK
VH: EVQLLESGGGLVQPGGSLRLSCAASGFTFSVYEMTWVRQAPGKGLEWVSGIGSSGGMTFYADSVKGRFTISRDNSKNTLYLQMNSLRAEDTAVYYCARIRYSGSYGWHYMDVWGKGTTVTVSS
modifications: Synthetically generated oligonucleotide
B11: M0032-B09: Fab that binds human MMP-14; DNA LV SEQ ID NO: 22, HV SEQ ID NO: 23 (antibody, V domains shown)
VH: EVQLLESGGGLVQPGGSLRLSCAASGFTFSIYKMVWVRQAPGKGLEWVSSIGSSGGHTRYADSVKGRFTISRDNSKNTLYLQMNSLRAEDTAVYYCARAPYYYYMDVWGKGTTVTVSS
VL: QDIQMTQSPSSVSASVGDTVTITCRASQGISTWLAWYQHKPGKAPKLLIYAGPSLQSGVPSRFSGSGSGTEFTLTISSLHPEDFATYYCQQLNHYPMTFGQGTRLEIK
modifications: Synthetically generated oligonucleotide

These molecules were tested against MMP-14 (Homo sapiens, UniProt P50281) (assay: Selection and phage ELISA screening of anti-MMP-14 Fabs). Conditions: Fab from FAB310 phage display library.
Assay type: binding
In short: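 The FAB310 phage library was panned on biotinylated MMP-14, alone or complexed with bead-bound TIMP-2, at 500 nM and then 100 nM over three rounds. Phage was eluted with 2.5 μM TIMP-2, then 100 mM TEA. For ELISA, 95 clones per round were screened against 1 μg/ml biotinylated MMP-14 captured on streptavidin in TRIS/5 mM CaCl2, pH 7.5.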
With B1 the “bind to human MMP-14” value was “bind to human MMP-14”. For B2, the “bind to human MMP-14” value was “bind to human MMP-14”. B3 was tested, and the “bind to human MMP-14” value was “bind to human MMP-14”. In the case of B4, the “bind to human MMP-14” value is reported as “bind to human MMP-14”. With B5 the “bind to human MMP-14” value was “bind to human MMP-14”. For B6, the “bind to human MMP-14” value was “bind to human MMP-14”. With B7 the “bind to human MMP-14” value was “bind to human MMP-14”. In the case of B8, the “bind to human MMP-14” value is reported as “bind to human MMP-14”. B9 was tested, and the “bind to human MMP-14” value was “bind to human MMP-14”. With B10 the “bind to human MMP-14” value was “bind to human MMP-14”. In the case of B11, the “bind to human MMP-14” value is reported as “bind to human MMP-14”.

— patent US8106168B2, “Metalloproteinase binding proteins” (Dyax Corp., priority 2005, dated 2012)
